Here are results for 1 protein from patent US6043072A, “Nucleic acids encoding Taxus geranylgeranyl diphosphate synthase, and methods of use” (Washington State University Research Foundation, priority 1998, dated 2000).

Substrate in series [1]: C=C(C)CCO[P@@](=O)(O)OP(=O)(O)O
In words: purified protein, by the assay type. Conditions: other: double reciprocal plotting; remaining reactants at saturation.

Substrate in series [2]: CC(C)=CCC/C(C)=C/CC/C(C)=C/CO[P@@](=O)(O)OP(=O)(O)O
As to the kind of experiment: purified protein, by the assay type. Conditions: other: double reciprocal plotting; remaining reactants at saturation.

B1: T. canadensis GGPP synthase (Taxus canadensis) (protein)
chain: FDFNEYMKSKAVAVDAALDKAIPLEYPEKIHESMRYSLLAGGKRVRPALCIAACELVGGSQDLAMPTACAMEMIHTMSLIHDDLPCMDNDDFRRGKPTNHKVFGEDTAVLAGDALLSFAFEHIAVATSKTVPSDRTLRVISELGKTIGSQGLVGGQVVDITSEGDANVDLKTLEWIHIHKTAVLLECSVVSGGILGGATEDEIARIRRYARCVGLLFQVVDDILDVTKSSEELGKTAGKDLLTDKATYPKLMGLEKAKEFAAELATRAKEELSSFDQIKAAPLLGLADYIAFRQN
On to B1, for which the Km – broadly, the substrate concentration at which the rate is half of its maximum – in series [1] was 7 µM; in series [2], 6 µM.
